Assay: soluble on expression in E. coli; label from the status in PepcDB or PDB records

Sequence | soluble on expression in E. coli
MGSDKIHHHHHHMPNSYTHYHDENVTDPHLRATGAISVLPLGAHEQHGPHLPFETDTLIAAGIVSRLAAVLPAHLPVSFLPVEPVGYSIEHMDVPGTKTLCYDEAIERWLGIAEAEYEKGVRKFVMLNAHGGNSPLMTIVATEARARFGMLAVATSWTRFGVPADIVKPQDKAVDIHGGDIETSVMLALHPERVVMEKAANFPSRQSDFSQRFSHLRAYGPHAFGWLMSDLNPDGVAGNAAAASAGKGERLISHAVNGLLELLEDVHAFDITLFHNKI | not soluble
MGSDKIHHHHHHMPQDVMTANHVSPSNDAAAPSALDLARNQRLSLMDLLSVSEALNAAGQQAAAAELYKTWVAFNDNNPTIHLAYFNYAVMLNQLGDRAGAVQAFRACLKANPEFAPGHINLGRALEDAGLIGHAVEQWSHYAEVTKNVDAETIGHRHMTLQNMGRVLEGAGKLEEAETALLQAFELRPELPEAGQHWASLRQRQCKWPVLAPSNHISPRKMLDAMSSLTLSCYADDPMFQLAKAYRLSKTLIGARPDLSRFPRRSPKQKSGTGQRLRVGYLSSDLRDHAVGFALCEVLELHDKDSLEVFAYYCGNVRGTDSTQERIKAAVHCWRDIHGVDDATAASQIIADEIDILIDVNGYTKDARAKIFAYRPAPVIVSFCGYPGSMGSPFHQYLISDGYMIPPENEIYYSEKVLRIACDQPLDRKRPVAARPSRADVGLPEDAFVYASFNGMQKITENCFARWMTILSETPGSLLWLLTGDDDVNQRLRDLAEKSGVASERLVFAPKAQNPQHIARIGLADLFLDTFPYGAHSTASDAITSGLPVLTMYGKTFAARFCGSIVTAAGVPEMICSSPEDYVARAIGFERDRQSLLEVRESIARQRETSVLRDIPALARRLEELFWQMQGECERGETPVPDLSNLDIYYEAGAEALLENIEFEDEQSYRERYLKKLRQWHDYAPIPYDRRLWQNPDN | not soluble
MGSDKIHHHHHHMPQTAFIWDLDGTLIDSYEAIMEALAVTYRTFGFDFQAEPIRRYIIKESVGKLLDILAKQHGLSSEELKTFFIQEQVKRDDKIKLMPFAKEALQWAKDRGIKQFMYTHKGASTGAVLAELGIVSYFTEILTSVSGFERKPHPQGIFYLLEKYHLDRDRTYYIGDRRLDVEVAENAGIKSINLAQPQSAANQKIDNLQVLTQLKDF | not soluble
MGSDKIHHHHHHMPRQLPPLYALRAFEAAARLSSFTRAGEELSITQSAISRHIRTLEEHFACRLFVRSGRSLQLTEAGRVLLPGVREGFAAFERACETLCGEDDILRMKAPSTLTMRWLLACLSRFRHLQPGNEVQLTSAWMDVDHVDFNQEPFDCAVLLSDGVFPPEWEVRKLFPELLIPVGAPDLLDEEPWDVCRLASVELLHPTVDKRDWREWLERMGLGDQVSLKGGQVFDTLELGMIAAARGYGISMGDLLMVAEDVAQKRLSLPWPTAVPSGMDYYLVWPRTRRGGERLRRLSAFLEGEVAAMDLPDVEILPRL | not soluble
MGSDKIHHHHHHMPRTILKDEHWTRLKPILLELNIYDKGNLRNTVEGVLYRMRVGCPWRDLPEHFGKPNTVYKAYQRWFRSNKLIALFALLIKDSDCEWVFIDGTHIKAHQHSSIGHENMQGISKSVAGRATKIHLAVDAHGNPITFILSDGTTHDVKVAPDLIDKDLSDTDILCADKGYDSDALRTHIKQAGCFNNIPRRRNTKSTNNHMDWHLYKTRHLVENAFAKLKHYRAVATRFDKLKQSYENTVALACAYLWLKL | not soluble
MGSDKIHHHHHHMPTLNQPQARFLALPHKFRAFVAGFGSGKTWVGGAGLCRHAWEFPRVNSGYFAPTYGQIRDIFYPTIEEVAHDWGLAAKINESNKEVHLFAGRKYRGTVICRSMEKPGDIVGFKIGKGLIDELDVMKADKAALAWRKIIARLRHTAPGLLNGVDVTTTPEGFKFVYQQFVKQVRERPELAALYGLVQASTYENGKNLPEDYIPSLRASYPPQLIAAYLRGQFTNLTSGSVYANFDRRLHHTDAAEEPHEELHIGMDFNVLNMTATVNVIRAGLPLTVGELTKVRDTPEMARMLKERFKDKGHGVTIYPDASGGNTSSKNASESDLSILRKAGFTVRVNSRNPSVKDRINAVNGMLLNDEGARRWLVNTDRCPTLTEALEQQVYDKNGEPDKSTGHDHPNDAQGYFLVHRYPITPTGMSRIKLTGT | not soluble
MGSDKIHHHHHHMPTTMTTNIKNNDFKDVVFNRQSVRQFDPTVKIDREELQTIIDETISAPSACNLQSWHFVVADSADGKAKAKSVLMPFNYPQIDSCSAMIFVLGDTQSHLVYRDVWNKACEEGRITPEKRDQIFKTFLPMYENASPEFLQADAMIDSSMAAMQLLLIARAHGYDANPIAGYAADKVATTFGLDAKRYVPVMAIALGKAASEPITTTRYAGTQVTEFI | not soluble
MGSDKIHHHHHHMPTVKLTKNITIMTGSPNTLIYDNRVVIDLGGKNSSVDINAEVQLATHGHADHIAGLLKKDAKIRYLPKEDYWSLTLMGRRAMIYGCSSKDSDIFTFDYVKENIESIDIEVRTSEIEVIKLPGHTPGHSGYIVDNVLYAGDAFFGEKVLEGFSVPFYTDFWTALESLNKVKELAKSVNNIVISHGPVYTNKNKMVSILESNIIYAQNLIGKILDMLSNNELTVEEIVVKLKQDLTPSNVLLNSVVVRSILFGLENIEYNVSQKGLVFRRRVH | not soluble
MGSDKIHHHHHHMPTYDAVIVGSGINSLVCAAVLARSGKRVCVLERNSTLGGCIRTEALHAPGYLHDTLSTAHPLFVTSPGYAELKDDLHQAGLSYANNDTPTGVLLPGNRSLILATSRERNVSAFNALASGDGDAYLAAMQEVEQNAGLVFSLLGNELWSADVAKTVAGRLWKQGVHDTVAFFSPALMSCRSWLETRIRSDLVRALLAPWVLHTGLGPESAMSALMGKVVAFSLEAVGLPIVQGGNARTVEAFRQIVESHGGAFHVNADVEDVLVENGSARGVRTRDDRVFMGKEIICNVTPGQLYGKLLAPAHVPPALRQQAAEYRYGKGNMQIHLSLSAPPDWPHAHLRNVIYLHLTSGLDGVSRAVSEAERGLLPAEGTICVAQPCAVDPSRSPAGGWVLWIQVPECPRTIKGDALGEIDAPADGRWTPEIRERYADRIIDRIARQVPNLKASIVGRTVLSPADLEAMNINLVGGDPYSGECSIDQFMVWRPLRGARNHATPVKHLHHIGASTHPGPGLGGTSGYHVANALARKRAKSNRT | not soluble
MGSDKIHHHHHHMPVSQPVSSQPPTANCYDLAVIGGGINGVGIAADAAGRGLKVFLCEKDDLAQHTSSASSKLIHGGLRYLEHYEFRLVREALAEREVLLAKAPHIVKPMRFVLPHRPHLRPAWMIRAGLFLYDHLGKRKRLGASRSLRFGPGYPLKPAITRGFEYADCAVDDARLVVLNAMAARELGAHIRTRTRCLRAERVEGLWQVELQHADGSLQTIHARALVNAAGPWVASFIKDDLKLDAPYGIRLIQGSHIIVPRLYEGEHAYILQNEDQRIVFCIPYLDRFTLIGTTDREYSGDPAAVAITEQETHYLLKVVNEHFNHQLSQADILHTYSGVRPLCNDESDNPSAVTRDYTLALSAEVGQAPLLSVFGGKLTTYRKLAESAMAELKPFFTQMRAPWTASAPLPGAEGMTTVQALIDAVLARCGWLPVDLAKRWVLTYGSRVWRLLDGVHGPEDLGQAIGAGLFTREVDYLLEEEWAEQTADIIWRRTKLGLSLTAQEQMALEAYLQQARKVRANSRAA | not soluble
MGSDKIHHHHHHMPYNATVLRIMIASPSDVAKERNIIRNIIYEWNTINSIDRKIVLDPVGWETHAHPDMSGRAQSIINKQILKDCDLLVAVFWTRLGTPTGKFISGTVEEIEEHLKSGKQAMIYFSRAPVYLESVDQDQYKALCDFRSLCQQKGLIETYESLEEFQHKFSRQISQKIIQNYSSLESTNNTLEVSFAPELPRLSDLGKDLLIEVASDSNGELICLPVMGGLMIETNNKQLADMGNARSEASWKSAISELIKYELMESLGGKGEVYRLTEKGYQVADHLGAP | not soluble
MGSDKIHHHHHHMQAAWLLGALVVPQLLSFGHGARGPGREWEGGWGGALEEERERESQMLKNLQEALGLPTGVGNEDNLAENPEDKEVWETTETQGEEEEEEITTAPSSSPNPFPSPSPTPEDTVTYILGRLASLDAGLHQLHVRLHVLDTRVVELTQGLRQLRDAASDTRDSVQALKEVQDRAEQEHGRLEGCLKGLRLGHKCFLLSRDFETQAAAQARCKARGGSLAQPADRQQMDALSRYLRAALAPYNWPVWLGVHDRRSEGLYLFENGQRVSFFAWHRAFSLESGAQPSAATHPLSPDQPNGGVLENCVAQASDDGSWWDHDCERRLYFVCEFPF | not soluble
MGSDKIHHHHHHMQDFLEFQSISKGYPGVQALSEVSFSVRKGAVHGLMGENGAGKSTLIRVLSGDQAADTGEIRINGEPQHYRSVRDAFNAGVIVIHQELQLVPELTVAENLWLGRFPGKAGVIDRRQLIRVVSDRLAEIGIDVDPEAKVASLSIGERQMVEIAKAVMTDARVIALDEPTSSLSSRESEILFALIDRLRSNGTVILYVSHRLDEIFRLCNSLTVLRDGRLAAHHPDISKVGREQIIAEMVGREISNIWGWRARTLGAARLTVERVSGANLPQPISFTVRAGEILGFFGLIGAGRSEMARLVYGADRRRQGKVLVDGLAVPADSPRLSIRAGVVLCPEDRKFDGIVQGRSIEENMAISSRRHFSPFGVVDKGKEAELAERFIAKLRVRTPSRHQDIVNLSGGNQQKVILGRWLSEEGVKVLLIDEPTRGIDVGAKSEIYEILYELAAQGMAIVVISSELPEVMGIADRILVMCEGRIAAEIDRSDFDEHRILAAALPDASATTATLPEQVS | not soluble
MGSDKIHHHHHHMQDIKDLTAVLRSNTPIVVIETYEEYRVIELLKRVAMTLYQPLFTWSVTSGLSRVDKDMGSQKFNTEPAELLGQIKSTQQQGIYVLCDFHPFVQDAPRNVRLLKEIALEYDALKHTLVLVSHAFEIPPEIRRYCAHFRLSLPSRNQLENLIVEEIDKVRRQGLPLVADESAIARLADNLRGVTFDDARRLIHKAIVDDGAITHDDVERVNQAKFRLMDMDGVLRYEYDTSSFSDIAGLHNLKEWLKARAPELSPQSSAPPPKGILLLGVQGSGKSLAAKAVAGAWQRPLLRLDMAALYNKYIGETEKNLRQALELADLMSPCVLWVDEIEKGISGSSSDEGTSQRILGTLLTWMAERKSDVFLVATANDIQALPPELMRKGRMDEIFFVDLPDEEIRKAIFLIHCKKRGVDVTSMDLGLLSRASQGFSGAEIEQAVISAIYSAASRRQPVEQAIILEELSRTRPLSVVMREKIDSLRAWAKGRTMNAHLD | not soluble
MGSDKIHHHHHHMQFLDDSLHPENQDKVVITVAPYGPEWMPQDFPEDIPVTMEEQVQKAVDCYNAGATVLHLHVRELDGKGSKRLSKFNELIAGVRAAVPDMIIQVGGSISFAPEDDGQAAKWLSDDTRHMLADLDPKPDQVTVAINTTQMNIMELLYPEYLEGTSLSHPAYVEAYREMTVPAGPGWVEEHLRRLSNAGIQPHFQLTGIHAMETLERMVRAGKYKGPLNLTWIGIGGGFDGPNPFNFVNFVHRAPDGCTLTAESLLKNVLPFNMMAMAMGLHPRCGIEDTIIDQHGNRMTSVQQIEQCVRVARELGREIASGKEAREIYRIGTWYDSAEETLEAHGMAPNRKAGQKNLPLRKAA | not soluble
MGSDKIHHHHHHMQGAQSTVDTQSESLNADRSASVDGHPIIVGAFINMYQQLNKDNLFLLRQVYRDDICFRDPMHHVEGIEALTDYFANMYQNVTHIEFDIKEVVISADKQQAALYWTMSYSHPKLSKGQLINVEGMSQLKFSDKIFSHRDYFDLGQMLYEQVPFLGGLIGLLKNRVTK | not soluble
MGSDKIHHHHHHMQHDDQPLPQTAPHGRVISHLGETDTDDATLLASIKTRLRQHNDRSAAEMEHLLQLVDALWAMELGRFLLRNRGLNANWTHQLVTYQAGTLVQQTTPALEYELFEKTPAVLATRERFGIFRTQLQALLRPGMTLASLPCGWMADVLSLDYGQCPDVRLIGIDLDPQALDGALRLAQQYGLEGQLTLQREDAWAPGEPNSVDVLSSNGLNLYEPDDARVIALYRAFFDRLRPGGTLVASFLTPPPSLCAESPWKLDLIDGAALVLQSQVFIDVVQARWASFRTHAQTRTQLESAGFTDVRFIDDRASIFPTVIARKPMSD | not soluble

— the DeepSol protein solubility set
